# Experimental data published in patent US20150203575A1.
# Legend:
# [1] = molecular target: human NPDC1 expressed on cells (human) (UniProt Q9NQX5); assay: flow cytometry, transfected 293 cells, 2nd Ab anti-mouse IgG2a FITC; untransfected 293: 0
# [2] = molecular target: FceRII expressed on cells (human) (UniProt P06734); assay: flow cytometry, transfected 293T cells, 2 µg/ml
# [3] = molecular target: FceRII expressed on cells (human) (UniProt P06734); assay: flow cytometry, transfected 293T cells, 50 µg/ml
# [4] = molecular target: human CD99 expressed on 293T cells (human) (UniProt P14209); assay: flow cytometry, transfected 293 cells, 2nd Ab anti-His-PE; untransfected 293: 0.13
# Sequence of human CD99 expressed on 293T cells (human) (P14209 23-185): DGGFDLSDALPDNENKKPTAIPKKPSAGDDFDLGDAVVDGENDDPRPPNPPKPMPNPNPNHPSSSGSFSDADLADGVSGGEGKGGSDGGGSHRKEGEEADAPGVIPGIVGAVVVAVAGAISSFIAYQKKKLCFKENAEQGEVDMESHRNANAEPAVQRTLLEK
# [5] = molecular target: human COLEC12 expressed on cells (human) (UniProt Q5KU26); assay: as above
# Sequence of human COLEC12 expressed on cells (human) (Q5KU26 whole entry S522P/G606S): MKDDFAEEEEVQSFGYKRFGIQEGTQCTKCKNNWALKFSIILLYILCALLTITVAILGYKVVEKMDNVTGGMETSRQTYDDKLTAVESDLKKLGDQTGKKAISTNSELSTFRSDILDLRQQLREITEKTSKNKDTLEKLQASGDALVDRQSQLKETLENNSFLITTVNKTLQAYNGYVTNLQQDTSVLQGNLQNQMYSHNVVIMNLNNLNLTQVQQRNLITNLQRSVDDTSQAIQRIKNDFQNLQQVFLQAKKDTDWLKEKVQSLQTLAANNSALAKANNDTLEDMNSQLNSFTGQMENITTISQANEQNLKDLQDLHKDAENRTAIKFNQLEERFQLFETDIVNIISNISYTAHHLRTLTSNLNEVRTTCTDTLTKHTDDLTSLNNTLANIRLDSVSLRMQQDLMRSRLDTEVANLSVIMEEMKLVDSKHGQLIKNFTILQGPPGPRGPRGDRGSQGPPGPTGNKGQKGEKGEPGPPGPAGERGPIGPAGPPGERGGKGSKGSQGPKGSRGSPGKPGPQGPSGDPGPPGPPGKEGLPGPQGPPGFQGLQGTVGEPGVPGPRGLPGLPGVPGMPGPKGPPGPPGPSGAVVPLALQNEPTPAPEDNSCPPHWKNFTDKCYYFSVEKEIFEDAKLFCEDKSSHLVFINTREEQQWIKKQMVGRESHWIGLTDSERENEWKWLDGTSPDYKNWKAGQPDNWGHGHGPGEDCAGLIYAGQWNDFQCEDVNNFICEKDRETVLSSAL
# [6] = molecular target: human NPDC1 expressed on cells (human) (UniProt Q9NQX5); assay: as above
# [7] = molecular target: human CD99 expressed on 293T cells (human) (UniProt P14209); assay: flow cytometry, transfected 293 cells, 2nd Ab anti-His-PE; untransfected 293: 0.059
# [8] = molecular target: human COLEC12 expressed on cells (human) (UniProt Q5KU26); assay: as above
# [9] = molecular target: human NPDC1 expressed on cells (human) (UniProt Q9NQX5); assay: as above
# [10] = molecular target: human CD99 expressed on 293T cells (human) (UniProt P14209); assay: flow cytometry, transfected 293 cells, 2nd Ab anti-goat-IgG-PE; untransfected 293: 0.098
# [11] = molecular target: human COLEC12 expressed on cells (human) (UniProt Q5KU26); assay: as above
# [12] = molecular target: human NPDC1 expressed on cells (human) (UniProt Q9NQX5); assay: as above
# Sequence of mPILRβ-his (R&D) (receptor) (Q2YFS2 29-195): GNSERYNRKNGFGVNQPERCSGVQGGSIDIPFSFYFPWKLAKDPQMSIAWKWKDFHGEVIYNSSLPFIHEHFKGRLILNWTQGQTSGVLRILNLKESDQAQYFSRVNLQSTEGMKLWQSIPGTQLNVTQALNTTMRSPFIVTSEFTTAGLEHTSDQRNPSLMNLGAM
# Sequence of human NPDC1 expressed on cells (human) (Q9NQX5 35-325 H113Q limits assumed): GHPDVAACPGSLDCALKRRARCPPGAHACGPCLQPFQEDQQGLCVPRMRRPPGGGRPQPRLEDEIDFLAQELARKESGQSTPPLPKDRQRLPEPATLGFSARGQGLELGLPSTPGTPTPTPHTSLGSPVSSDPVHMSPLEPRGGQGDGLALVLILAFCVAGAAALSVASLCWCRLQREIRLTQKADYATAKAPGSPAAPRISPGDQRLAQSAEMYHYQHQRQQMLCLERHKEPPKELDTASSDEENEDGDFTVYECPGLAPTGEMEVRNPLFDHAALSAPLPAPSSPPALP
# Sequence of mPILRα-his (R&D) (receptor) (Q2YFS3 32-198): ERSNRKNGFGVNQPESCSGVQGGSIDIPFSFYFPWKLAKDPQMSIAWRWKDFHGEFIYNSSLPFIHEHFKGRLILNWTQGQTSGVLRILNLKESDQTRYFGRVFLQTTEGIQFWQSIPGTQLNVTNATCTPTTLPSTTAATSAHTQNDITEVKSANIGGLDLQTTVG
# Sequence of FceRII expressed on cells (human) (P06734 whole entry N269T): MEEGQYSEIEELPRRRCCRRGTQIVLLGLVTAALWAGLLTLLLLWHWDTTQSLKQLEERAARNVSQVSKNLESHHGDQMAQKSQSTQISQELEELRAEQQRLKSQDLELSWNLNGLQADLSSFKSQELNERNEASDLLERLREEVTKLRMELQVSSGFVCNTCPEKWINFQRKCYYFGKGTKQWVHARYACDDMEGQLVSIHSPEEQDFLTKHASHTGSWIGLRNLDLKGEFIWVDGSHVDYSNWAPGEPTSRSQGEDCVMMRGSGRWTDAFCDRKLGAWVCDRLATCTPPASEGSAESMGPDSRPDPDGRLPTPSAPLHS
substance,measurement,setting,value
mIgG2a (Control) (antibody),% cells in lower right quadrant,[1],0.018%
hPILRα-Fc (from UniProt Q9UKJ1 20-197) (Fc fusion),% cells in lower right quadrant,[2],15.5%
same,% cells in lower right quadrant,[3],58.1%
mPILRαR133A-Fc (from UniProt Q2YFS3 32-198) (Fc fusion),% cells in lower right quadrant,[3],0.014%
mPILRα-Fc (from UniProt Q2YFS3 32-198) (Fc fusion),% cells in lower right quadrant,[2],30.3%
same,% cells in lower right quadrant,[3],47.8%
mPILRα-his (R&D) (receptor),% cells in lower right quadrant,[4],0.24%
same,% cells in lower right quadrant,[5],12.3%
same,% cells in lower right quadrant,[6],23.6%
hPILRαR126A-Fc (from UniProt Q9UKJ1 20-197) (Fc fusion),% cells in lower right quadrant,[2],0.028%
mPILRβ-his (R&D) (receptor),% cells in lower right quadrant,[7],0.043%
same,% cells in lower right quadrant,[8],0.062%
same,% cells in lower right quadrant,[9],0.22%
Goat IgG (Control) (antibody),% cells in lower right quadrant,[10],0.19%
same,% cells in lower right quadrant,[11],2.19%
same,% cells in lower right quadrant,[12],1.28%
